Biological target: Bovine thrombin (Sigma) (bovine) (UniProt P00735)
Assay: cell-based or functional assay

Substance | amount at which there is almost no coagulation (plasma coagulation, A405) [pmol] | amount needed for the anti-coagulation reaction at the A405 reading of 0.05 [pmol] | amount of culture medium at which there is no coagulation (plasma coagulation, A405) [µL] | amount of culture medium needed for the anti-coagulation reaction at the A405 reading of 0.05 [µL] | amount of homogeneous extract of mammary gland cells at which there is no coagulation (plasma coagulation, A405) [mg] | amount of homogeneous extract of mammary gland cells needed for the anti-coagulation reaction at the A405 reading of 0.05 [mg]
commercially available nature hirudin (Sigma) (from UniProt P01050 1-65) | 0.16 | 0.52 |  |  |  | 
hirudin encoded by the full-length DNA fragment Hi (SEQ ID NO: 17), expressed from pE-αLA-Hi in NMuMG mammary gland cells (from UniProt P01050 1-65) |  |  | 10 | 0.95 | 0.25 | 0.056

Source: patent US20070016969A1
